# According to PMC3382596, “A Phthalimide Derivative That Inhibits Centrosomal Clustering Is Effective on Multiple Myeloma” (PLoS ONE, 2012):
# B1: Recombinant NPM(1-183), the 183 NH2-terminal amino acids of nucleophosmin 1 (domain or fragment, human, UniProt P06748 1-183, looked up)
# chain: MEDSMDMDMSPLRPQNYLFGCELKADKDYHFKVDNDENEHQLSLRTVSLGAGAKDELHIVEAEAMNYEGSPIKVTLATLKMSVQPTVSLGGFEITPPVVLRLKCGSGPVHISGQHLVAVEEDAESEDEEEEDVKLLSISGKRSAPGGGSKVPQKKVKLAADEDDDDDDEEDDDEDDDDDDFDD
# notes: nucleophosmin 1 (NPM/B23), clone from a cDNA library of the human multiple myeloma cell line KMS34; also called NPM/B23; 1-183 NPM; source: E. coli, partially purified, fractionated by gel filtration
# Target: the molecule itself
# Experiment: SEC; gel filtration of recombinant NPM(1-183) from E. coli to separate oligomeric and monomeric forms; fractions checked by SDS-PAGE with CBB staining
protein,measurement,value
B1,binding result,binds
